Results published in patent US20200148733A1.

Molecular target: human IL-23 (human) (UniProt Q9NPF7)
Test: cell-based or functional assay

human IL-23 (human), sequence (Q9NPF7 20-189, chain 1 of 2): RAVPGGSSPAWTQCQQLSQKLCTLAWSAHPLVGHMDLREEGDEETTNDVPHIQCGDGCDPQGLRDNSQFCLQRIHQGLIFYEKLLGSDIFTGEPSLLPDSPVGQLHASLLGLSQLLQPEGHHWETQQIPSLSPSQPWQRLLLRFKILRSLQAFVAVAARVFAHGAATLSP
human IL-23 (human), sequence (P29460 23-328, chain 2 of 2, further chain): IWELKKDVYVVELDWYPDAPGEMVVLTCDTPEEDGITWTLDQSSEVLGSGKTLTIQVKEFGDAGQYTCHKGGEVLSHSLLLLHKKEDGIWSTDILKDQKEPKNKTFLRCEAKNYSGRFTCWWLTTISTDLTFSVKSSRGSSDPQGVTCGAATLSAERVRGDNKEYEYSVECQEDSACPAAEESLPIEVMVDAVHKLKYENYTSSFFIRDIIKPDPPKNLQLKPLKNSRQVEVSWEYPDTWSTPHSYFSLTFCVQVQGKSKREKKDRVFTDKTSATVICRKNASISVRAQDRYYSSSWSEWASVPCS

EC50 [nM] AVERAGE, hIL-23-induced proliferation of Ba/F3 cells expressing hIL-23R and hIL-12Rβ1: 2.4 nM
EC50 [nM] Exp 1, hIL-23-induced proliferation of Ba/F3 cells expressing hIL-23R and hIL-12Rβ1: 1.9 nM
EC50 [nM] Exp 2, hIL-23-induced proliferation of Ba/F3 cells expressing hIL-23R and hIL-12Rβ1: 2.3 nM
EC50 [nM] Exp 3, hIL-23-induced proliferation of Ba/F3 cells expressing hIL-23R and hIL-12Rβ1: 3.5 nM
EC50 [nM] Exp 4, hIL-23-induced proliferation of Ba/F3 cells expressing hIL-23R and hIL-12Rβ1: 2 nM
IC50, hIL-23-induced proliferation of Ba/F3 cells expressing hIL-23R and hIL-12Rβ1: 11.1 nM
Substance: benchmark antibody ustekinumab (Stelara, obtained from Janssen-Cilag)
